According to patent US20230167458A1, “FORSKOLIN-INDUCIBLE PROMOTERS AND HYPOXIA-INDUCIBLE PROMOTERS” (ASKLEPIOS BIOPHARMACEUTICAL, INC., priority 2020, published 2023):
“Also recorded” adds a separate entry of the source.

What was measured:
HEK293-F = assay: Luciferase time course after forskolin induction, transient transfection of suspension HEK293-F; assay type: cell-based, human; conditions: 20 µM forskolin
Method: The tested promoters were synthesised directly upstream of the ATG of PM-RQ plasmid and the suspension cell lines were transiently transfected with the PM-RQ plasmid.
40 ml of cells were grown in a 250 ml vented Erlenmeyer flask (Sigma-Aldrich CLS431144) at 37° C., 20% O2, 8% CO2 with agitation at 100 rpm. Cells were seeded as described in the manufacturer's instructions (300,000 cells/ml). HEK293-F were obtained from Thermofisher, R79007.
One day before transfection, the cells were counted using a haemocytometer and split to 500,000 cells/ml.
On the day of transfection, the cells are seeded to 1,000,000 cells/ml in 500 μl of appropriate medium (Freestyle 293 expression medium, 12338002) in a 24 well plate. […] of DNA per well was then added to 10 μl of OptiMem medium (Thermofisher; 11058021) and incubated for 5 minutes at room temperature.
Concurrently, 0.625 μl of Max reagent (Thermofisher, 16447100) was made up to 10 μl by addition of OptiMem and incubated for 5 minutes at room temperature. After this incubation, both mixes were added to the same tube and incubated at room temperature for 25-30 minutes. […]
24 hours after transfection, the promoters were induced by addition of […] forskolin and luciferase activity was measured 0, 3, 5 and 24 hours after induction. Luciferase activity was measured as previously described.

[1] = test system: C2C12 human muscle cell line; assay: Luciferase expression from forskolin-inducible promoter, transient transfection in differentiated C2C12; assay type: cell-based
Method: Luciferase readouts were normalised to β-galactosidase to produce normalised relative luminometer units (RLUs). β-galactosidase containing pcDNA6 plasmid was used as internal control for transfection efficiency (Thermofisher, V22020). β-galactosidase activity was measured as per manufacturer's instructions (Mammalian βGalactosidase Assay Kit, 75707/75710, Thermo Scientific) using 25 μl of lysate. 25 μl of lysate was transferred into a microplate well and mixed with 25 μl of β-galactosidase Assay Reagent, equilibrated to room temperature. The mixture was incubated at 37° C. for 30 min and absorbance measured at 405 nm.
The forskolin-inducible promoters were initially used to drive expression of luciferase in the Huh7 human liver cell line and the C2C12 […]. The promoter constructs were used to drive expression of luciferase in the PM-RQ plasmid. The tested promoters were synthesised directly upstream of the ATG of PM-RQ plasmid.
• Media was prewarmed at 37° C. before use • C2C12 Complete Medium was used to grow the cells before differentiation. […]
C2C12 cells were maintained at 37° C., 5% CO2. […] Detachment was monitored under the microscope. • 4 ml C2C12 Complete Medium was added to inactivate Trypsin and the cells were transferred into a 15 ml tube. • The cells were centrifuged for 3 mins at 250 RCF at room temperature. • The supernatant was aspirated • The cells were resuspended by gentle pipetting up and down in 6 ml C2C12 Complete Medium • The cells were counted in a haemocytometer by using trypan blue (Thermofisher, 15250061) to determine the how many of the cells were alive. Trypan blue stains dead cells in blue and this allows for them not to be counted. The cells were resuspended into trypan blue in ration of 1:10, e.g. 10 μl cells and 90 μl trypan blue and counted using a haemocytometer. • The cells were seeded in complete medium at a density dependent on the passage number. […] The abovementioned densities are experimentally determined for efficient differentiation and transfection. […]

B1: RTV-019: synthetic forskolin-inducible promoter, SEQ ID NO: 44; 3× ATF6, 4× AP1(1) and 3× HRE1 TFBS and CMV-MP (nucleic acid)
DNA: TGACGTGCTGATGATGCGTAGCTAGTAGTTGACGTGCTGATGATGCGTAGCTAGTAGTTGACGTGCTGATGATGCGTAGCTAGTAGTTGAGTCAGATGATGCGTAGCTAGTAGTTGAGTCAGATGATGCGTAGCTAGTAGTTGAGTCAGATGATGCGTAGCTAGTAGTTGAGTCAGATGATGCGTAGCTAGTAGTCTGCACGTAGATGATGCGTAGCTAGTAGTCTGCACGTAGATGATGCGTAGCTAGTAGTCTGCACGTAGATGATGCGTAGCTAGTAGTGCAGTTAGCGTAGCTGAGGTACCGTCGACGATATCGGATCCAGGTCTATATAAGCAGAGCTCGTTTAGTGAACCGTCAGATCGCCTAGATACGCCATCCACGCTGTTTTGACCTCCATAGAAGATCGCCACC
modifications: Synp-RTV-019
notes: 3× ATF6, 4× AP1(1) and 3× HRE1 TFBS and CMV-MP
- relative rank of promoter (fold induction/strength) (HEK293-F): strongest
- luciferase activity following induction ([1]; C2C12, 20 µM forskolin): high activity; also recorded: much higher activity
- luciferase activity without induction (background) ([1]; C2C12, before addition of forskolin): low background activity
- fold activation of promoter (luciferase activity) ([1]; C2C12 muscle cells, 20 µM forskolin, 24 hrs): 6 fold
